Measured values from publication PMC6274713.
pKd: −log10 of the molar value.

Assays:
MLL4 3500-3630 = MLL4 3500-3630 (UniProt O14686); experiment: MST; details: EMSA: LightShift RNA EMSA kit protocol, 1 or 2 nM RNA, 30 min at room temperature, 4 or 6% native PAGE, MST buffer, pH and temperature not given in the …
MLL4 4210-4280 = MLL4 4210-4280 (UniProt O14686); experiment: MST; details: apparent Kd; EMSA: LightShift RNA EMSA kit protocol, 1 or 2 nM RNA, 30 min at room temperature, 4 or 6% native PAGE; MST buffer, pH and temperature not given in the …

MEG3 full length
pKd (MLL4 3500-3630): 6.14

HOTAIR440
pKd (MLL4 3500-3630; apparent, from T-jump, aggregation above 1:20 RNA:protein, no saturation): 7.00 | pKd (MLL4 4210-4280): 4.88

HOTAIR300
pKd (MLL4 3500-3630): 6.01
